Molecular target: human neonatal Fc receptor (FcRn) (human) (UniProt P55899)
Assay: BLI; Octet; biotinylated human FcRn on streptavidin-coated biosensors, antibody soluble; equilibrium binding; PBSA pH 5.6; tips regenerated in PBSA pH 7.4

Kd: 107 nM
B1: F5111 antibody, wild type (hIgG1 lambda) (antibody, V domains shown)
VH: QLQLQESGPGLVKPSQTLSLTCTVSGGSISSGGYYWSWIRQHPGKGLEWIGYIYYSGSTYYNPSLKSRVTISVDTSKNQFSLKLSSVTAADTAVYYCARTPTVTGDWFDPWGRGTLVTVSS
VL: NFMLTQPHSVSESPGKTVTISCTRSSGSIASNYVQWYQQRPGSSPTTVIYEDNQRPSGVPDRFSGSIDSSSNSASLTISGLKTEDEADYYCQSYDSSNVVFGGGTKLTVL

Reference: paper PMC11697773
